The target of the assay is T1, IL-22 receptors R1 and R2 on HEK-Blue IL-22 reporter cells (UniProt Q8N6P7).
T1 sequence (looked up) 1: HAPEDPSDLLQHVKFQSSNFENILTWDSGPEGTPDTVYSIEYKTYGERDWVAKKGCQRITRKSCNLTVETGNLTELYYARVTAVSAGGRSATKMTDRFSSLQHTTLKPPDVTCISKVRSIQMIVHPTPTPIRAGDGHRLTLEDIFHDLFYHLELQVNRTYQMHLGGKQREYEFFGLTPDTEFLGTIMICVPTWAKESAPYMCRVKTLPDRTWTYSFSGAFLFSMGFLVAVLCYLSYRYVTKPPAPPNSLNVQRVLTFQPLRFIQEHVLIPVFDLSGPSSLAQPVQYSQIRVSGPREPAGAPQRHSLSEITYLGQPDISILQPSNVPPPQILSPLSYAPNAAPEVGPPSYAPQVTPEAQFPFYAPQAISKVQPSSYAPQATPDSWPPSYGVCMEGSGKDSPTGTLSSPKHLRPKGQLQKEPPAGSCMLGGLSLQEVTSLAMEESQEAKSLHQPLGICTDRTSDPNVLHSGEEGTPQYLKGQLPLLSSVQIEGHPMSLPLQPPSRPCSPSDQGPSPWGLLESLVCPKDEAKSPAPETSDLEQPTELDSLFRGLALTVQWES
T1 sequence (looked up) 2: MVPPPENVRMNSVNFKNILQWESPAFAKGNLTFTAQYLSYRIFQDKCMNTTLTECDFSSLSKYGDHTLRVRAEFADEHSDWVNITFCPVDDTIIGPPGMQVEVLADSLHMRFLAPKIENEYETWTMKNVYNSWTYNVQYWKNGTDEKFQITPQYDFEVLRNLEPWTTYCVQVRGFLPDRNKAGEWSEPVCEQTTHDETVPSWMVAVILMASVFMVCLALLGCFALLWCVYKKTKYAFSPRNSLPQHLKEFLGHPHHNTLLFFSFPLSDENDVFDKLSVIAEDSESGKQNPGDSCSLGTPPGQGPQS
In words: cell-based or functional assay.

B1: IL22 WT (monomeric IL22 based on the IL22 crystal, PDB 3dlq, expressed in bacteria) (ligand)
chain: ARLDKSNFQQPYITNRTFMLAKEASLADNNTDVRLIGEKLFHGVSMSERCYLMKQVLNFTLEEVLFPQSDRFQPYMQEVVPFLARLSNRLSTCHIEGDDLHIQRNVQKLKDTVKKLGESGEIKAIGELDLLFMSLRNACI
On to B1, for which the Kd (apparent, HEK-Blue IL-22 reporter) is 0.017 nM.

Values taken from US20260008830A1.
